The data set concerns K562 CRISPRi cells. Description: Constant region variant library pooled growth screen, K562. Format: cell-based, human. To be noted: sgRNA constant region variants. The essentials: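 Growth screens in K562 CRISPRi cells were harvested 4-8 days post-selection at >2000× library coverage. Each variant's phenotype was referenced to the unmodified constant region with the same targeting sequence.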

[1] abbreviates: relative to the original, un-modified constant region cr995 (= 1).
Setting [2] is: activity relative to the original, un-modified constant region cr995.

B1: cr851 (nucleic acid)
guide: GTTTAAGAGCTAAGCTGGAAACAGCATAGCAAGTTTAAATAAGGCTAGTCCGTTATCAGCTTGAAAAAGCGGCACCAAGTTGGTGCT
modifications: listed as DNA, chemistry not fully specified
For B1, the Mean relative activity under setting [1] was 1.002.

B2: cr774 (nucleic acid)
guide: GTTTAAGAGCTAAGCTGGACACAGCATAGCAAGTTTAAATAAGGCTAGTCCGTTATCAACTTGAAAAAGTGGCACCGAGTCGGTGCT
modifications: listed as DNA, chemistry not fully specified
In the case of B2, the Mean relative activity under setting [1] came to 0.9968.

B3: cr023 (nucleic acid)
guide: GTTTAAGGGCTAAGCTGGAAACAGCATAGCAAGTTTAAATAAGGCTAGTCCGTTATCAACTTGAAAAAGTGGCACCGAGTCGGTGCT
modifications: listed as DNA, chemistry not fully specified
Under setting [1], B3 yielded a Mean relative activity of 0.9917.

B4: cr489 (nucleic acid)
guide: GTTTAAGAGCTAAGCTGGAAACAGCATAGCAAGTTTAAATAAGGCTAGTCCGTTATCAACTTGAGAAAGTGGGACCGAGTCGGTCCT
modifications: listed as DNA, chemistry not fully specified
B4 came in with a Mean relative activity under setting [1] of 0.9991.

B5: cr446 (nucleic acid)
guide: GTTTAAGAGCTAAGCTGGAAACAGCATAGCAAGTTTAAATAAGGTTAATCCGTTATCATCTTGAAAAAGAGGGACCGAGTCGGTCCT
modifications: listed as DNA, chemistry not fully specified
Under setting [1], B5 came in with a Mean relative activity of 0.9926.

B6: cr156 (nucleic acid)
guide: GTTTAAGAGCTAAGCTGGAAACAGCATAGCAAGTTTAAATAAGGCTAGTCCGTTATCAACTAGAAATAGTGGCACCGAGTCGGTGCT
modifications: listed as DNA, chemistry not fully specified
Under setting [2], B6 came in with a Mean relative activity of 1.072.

B7: cr172 (nucleic acid)
guide: GTTTAAGAGCTAAGCTGGAAACAGCATAGCAAGTTTAAATAAGGCTTGTCCGTTATCAACTTGTAAAAGTGGCACCGAGTCGGTGCT
modifications: listed as DNA, chemistry not fully specified
Under setting [1], B7 had a Mean relative activity of 0.9996.

B8: cr653 (nucleic acid)
guide: GTTTAAGAGCTAAGCTGGAAACAGCATAGCAAGTTTAAATAAGGCTAGTCCGTTATCAACTTGAAAAAGTGGCACAGAGTCTGTGCT
modifications: listed as DNA, chemistry not fully specified
B8 had a Mean relative activity under setting [1] of 0.9907.

B9: cr956 (nucleic acid)
guide: GTTTAAGAGCTAAGCTGGAAACAGCATAGCAAGTTTAAATAAGGCAAGTCCGTTATCAACTTGAAAAAGTGGCACCGAGTCGGTGCT
modifications: listed as DNA, chemistry not fully specified
In the case of B9, the Mean relative activity under setting [1] was 0.9983.

B10: cr534 (nucleic acid)
guide: GTTTAAGAGCTAAGCTGGAAACAGCATAGCAAGTTTAAATAAGGTTAATCCGTTATCAACTTGAAAAAGTGACACCGAGTCGGTGTT
modifications: listed as DNA, chemistry not fully specified
For B10, the Mean relative activity under setting [2] is reported as 1.069.

B11: cr698 (nucleic acid)
guide: GTTTAAGAGCTAAGCTGGAAACAGCATAACAAGTTTAAATAAGGCTAGTCCGTAATCAACTTGTAAAAGTGGCACCGAGTCGGTGCT
modifications: listed as DNA, chemistry not fully specified
On to B11, for which the Mean relative activity under setting [1] is on record as 0.9956.

B12: cr932 (nucleic acid)
guide: GTTTAAGAGCTAAGCTGGAAACAGCATAGTAAGTTTAAATAAGGCTAGTCCGTTATCAACTTGAAAAAGTGGCACCGAGTCGGTGCT
modifications: listed as DNA, chemistry not fully specified
B12: the Mean relative activity under setting [1] is listed as 0.9947.

B13: cr947 (nucleic acid)
guide: GTTTAAGAGCTAAGCTGGGAACAGCATAGCAAGTTTAAATAAGGCTAGTCCGTTATCAACTTGAAAAAGTGGCACCGAGTCGGTGCT
modifications: listed as DNA, chemistry not fully specified
The molecule B13 returned a Mean relative activity under setting [1] of 0.9997.

B14: cr839 (nucleic acid)
guide: GTTTAAGAGCTAAGCTGGAAACAGCATAGCAAGTTTAAATAAGGCTAGTCCGTTATCAACTTGAGAAAGTGGCACCGAGTCGGTGCT
modifications: listed as DNA, chemistry not fully specified
Under setting [1], B14 showed a Mean relative activity of 0.9918.

B15: cr152 (nucleic acid)
guide: GTTTAAGAGCTAAGCTGGAAACAGCATAGCAAGTTTAAATAAGGCTAGTCCGTTATCAACTTGAAAAAGTGAAACCGAGTCGGTTTT
modifications: listed as DNA, chemistry not fully specified
For the molecule B15, under setting [1], the Mean relative activity is listed as 0.9971.

B16: cr392 (nucleic acid)
guide: GTTTAAGAGCTAAGCTGGAAACAGCATAGCATGTTTAAATAAGGCTAGTCCGTTATCAACTTGATAAAGTGGCACCGAGTCGGTGCT
modifications: listed as DNA, chemistry not fully specified
Under setting [1], B16 had a Mean relative activity of 0.9999.

B17: cr713 (nucleic acid)
guide: GTTTAAGAGCTAAGCTGGAAACAGCATAGCAAGTTTAAATAAGGCTAGTCCGTTATCAACTAGAGATAGTGGCACCGAGTCGGTGCT
modifications: listed as DNA, chemistry not fully specified
Regarding B17, the Mean relative activity under setting [1] is given as 0.9979.

B18: cr995: original, un-modified sgRNA constant region sequence (nucleic acid)
guide: GTTTAAGAGCTAAGCTGGAAACAGCATAGCAAGTTTAAATAAGGCTAGTCCGTTATCAACTTGAAAAAGTGGCACCGAGTCGGTGCT
modifications: listed as DNA, chemistry not fully specified
For B18, under setting [1], the Mean relative activity was found to be 1.

B19: cr666 (nucleic acid)
guide: GTTTAAGAGCTAAGCTGGAAACAGCATAGCAAGTTTAAATAAGGTTAATCCGTTATCAACTTGAAAAAGTGGAGCCGAGTCGGCTCT
modifications: listed as DNA, chemistry not fully specified
As for B19, the Mean relative activity under setting [1] was 0.996.

B20: cr145 (nucleic acid)
guide: GTTTAAGAGCTAAGCTGGAAACAGCATAGCAAGTTTAAATAAGGCTAGTCCGTTATCAACTTGATAAAGTGGCACCGAGTCGGTGCT
modifications: listed as DNA, chemistry not fully specified
In the case of B20, under setting [1], the Mean relative activity was 0.9925.

B21: cr604 (nucleic acid)
guide: GTTTAAGAGCTAAGCTGGAAACAGCATAGCAAGTTTAAATAAGGCAAGTCCGTTATCAACTTGACAAAGTGGCACCGAGTCGGTGCT
modifications: listed as DNA, chemistry not fully specified
Molecule B21 gave a Mean relative activity under setting [1] of 0.9912.

B22: cr923 (nucleic acid)
guide: GTTTAAGAGCTAAGCTGGAAACAGCATAGCAAGTTTAAATAAGGCTAGTCCGTTATCAACTTGAAAAAGTGACCCCGAGTCGGGGTT
modifications: listed as DNA, chemistry not fully specified
Molecule B22 yielded a Mean relative activity under setting [1] of 1.002.

B23: cr195 (nucleic acid)
guide: GTTTAAGAGCTAAGCTGGAAACAGCATAGCAAGTTTAAATAAGGCTAGTCCGTTATCAACTTGCAAAAGTGGCACCGATTCGGTGCT
modifications: listed as DNA, chemistry not fully specified
Consider B23, for which the Mean relative activity under setting [1] turned out to be 0.9986.

B24: cr722 (nucleic acid)
guide: GTTTAAGAGCTAAGCTGGAAACAGCATAGCAAGTTTAAATAAGGCTAGTCCGTTATCAACTTGAGAAAGTGGCCCCGAGTCGGGGCT
modifications: listed as DNA, chemistry not fully specified
As to B24, the Mean relative activity under setting [1] amounted to 1.001.

B25: cr363 (nucleic acid)
guide: GTTTAAGAGCTAAGCTGGAAACAGCATAGCAAGTTTAAATAAGGCTAGTCCGTTATCAATTCGAAAGAATGGCACCGAGTCGGTGCT
modifications: listed as DNA, chemistry not fully specified
The molecule B25 showed a Mean relative activity under setting [2] of 1.07.

B26: cr269 (nucleic acid)
guide: GTTTAAGAGCTAAGCTGGAAACAGCATAGCAAGTTTAAATAAGGCTAGTCCGTTATCAACTTGAAAAAGTGCAACCGAGTCGGTTGT
modifications: listed as DNA, chemistry not fully specified
Regarding B26, under setting [1], the Mean relative activity is 0.9979.

B27: cr789 (nucleic acid)
guide: GTTTAAGAGCTAAGCTGGAAACAGCATAGCAAGTTTAAATAAGGCTAGTCCGTTATCAACTTGAAAAAGTGCCACCGAGTCGGTGGT
modifications: listed as DNA, chemistry not fully specified
Turning to B27, the Mean relative activity under setting [1] worked out at 0.9955.

B28: cr893 (nucleic acid)
guide: GTTTAAGAGCTAAGCTGGAAACAGCATAGCAAGTTTAAATAAGGCTAGTCCGTTATCAACTTGAAAAAGTGGCACCGAGTCGGTGTT
modifications: listed as DNA, chemistry not fully specified
Turning to B28, under setting [1], the Mean relative activity was 0.9932.

B29: cr636 (nucleic acid)
guide: GTTTAAGAGCTAAGCTGGAAACAGCATAGCAAGTTTAAATAAGGCTAGTCCGTTATCAACTTGGTAAAGTGGCACCGAGTCGGTGCT
modifications: listed as DNA, chemistry not fully specified
In turn, B29 gave a Mean relative activity under setting [1] of 0.992.

For the origin of these results see patent US20220259593A1, “CONTROL OF MAMMALIAN GENE DOSAGE USING CRISPR” (The Regents of the University of California, priority 2019, published 2022).
